This is an account of results in article PMC8944281 (Proceedings of the National Academy of Sciences of the …, 2022).

The assay deals with T1, His8-tagged GSAP-16K 734 to 758 (UniProt A4D1B5 734-758).
T1 chain (looked up): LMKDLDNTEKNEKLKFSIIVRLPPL
The assay is described as follows: SEC.

SIHHGVVEV (domain or fragment, UniProt P05067 730-738, looked up) [GST-APP 730 to 738]: the binding result is recorded as “binds”.
